# Results as given in publication PMC5325305, “Structural and biochemical studies on Vibrio cholerae Hsp31 reveals a novel dimeric form and Glutathione-independent Glyoxalase activity” (PLoS ONE, 2017).
# Tests used:
# CC(=O)C=O = test: purified protein; conditions: glutathione-independent, 100 mM sodium phosphate pH 7.5, 1 mM EDTA, 1 mM DTT (printed DDT), 37°C, text lists Km and Vmax values in swapped order, assigned by unit
# [1] = test system: Cc1cc(=O)oc2cc(NC(=O)[C@H](C)N)ccc12; test: purified protein; conditions: pH 8.0, 37°C, 20 mM Tris, 1 mM dithiothreitol, 3% dimethyl sulfoxide
substance,measurement,setting,value
VcHsp31 (Vibrio cholerae),Km,CC(=O)C=O,250.8 µM
same,kcat,CC(=O)C=O,0.6628 s⁻¹
same,Km,[1],112.5 µM
same,kcat,[1],0.00128 s⁻¹
